How the values were obtained:
[1] = test system: glucocorticoid receptor (GR); experiment: GR reporter CAT analysis in GR positive Hela cells; type: cell-based; settings: co-expression of HDART; Hela cells; 10^−8 M dexamethasone
Procedure: Furthermore, the action of HDART on the transcription regulation by glucocorticoid receptor (GR) was analyzed by use of GR reporter plasmid in GR positive Hela cells. The transcription activity of a glucocorticoid response promoter was carried out in the same manner as in the experiment for the retinoic acid receptor except for the use of Hela cells and 10^−8 M of dexamethasone. The results of the measurement are shown in the same manner as shown above.
Next, the influence of the overexpression of N4TPR on the transcription from RAR or a glucocorticoid responsive promoter was checked. It will be noted that this test was made in the same manner as in the reporter analysis set out in Example 4, but using GFP-N4TPR expression vector (0, 0.3 and 0.5 μg).

HDAC6 = molecular target: T1, HDAC6 (Homo sapiens, UniProt Q9UBN7); experiment: Immunoprecipitation of GFP-HDART with Flag-HDAC in 293 cells; type: binding; settings: co-transfected 293 cells; anti-FLAG immunoprecipitation
T1 construct: expressed in transfected cells; host or cells: 293 cells
T1 sequence (Q9UBN7 1-1215): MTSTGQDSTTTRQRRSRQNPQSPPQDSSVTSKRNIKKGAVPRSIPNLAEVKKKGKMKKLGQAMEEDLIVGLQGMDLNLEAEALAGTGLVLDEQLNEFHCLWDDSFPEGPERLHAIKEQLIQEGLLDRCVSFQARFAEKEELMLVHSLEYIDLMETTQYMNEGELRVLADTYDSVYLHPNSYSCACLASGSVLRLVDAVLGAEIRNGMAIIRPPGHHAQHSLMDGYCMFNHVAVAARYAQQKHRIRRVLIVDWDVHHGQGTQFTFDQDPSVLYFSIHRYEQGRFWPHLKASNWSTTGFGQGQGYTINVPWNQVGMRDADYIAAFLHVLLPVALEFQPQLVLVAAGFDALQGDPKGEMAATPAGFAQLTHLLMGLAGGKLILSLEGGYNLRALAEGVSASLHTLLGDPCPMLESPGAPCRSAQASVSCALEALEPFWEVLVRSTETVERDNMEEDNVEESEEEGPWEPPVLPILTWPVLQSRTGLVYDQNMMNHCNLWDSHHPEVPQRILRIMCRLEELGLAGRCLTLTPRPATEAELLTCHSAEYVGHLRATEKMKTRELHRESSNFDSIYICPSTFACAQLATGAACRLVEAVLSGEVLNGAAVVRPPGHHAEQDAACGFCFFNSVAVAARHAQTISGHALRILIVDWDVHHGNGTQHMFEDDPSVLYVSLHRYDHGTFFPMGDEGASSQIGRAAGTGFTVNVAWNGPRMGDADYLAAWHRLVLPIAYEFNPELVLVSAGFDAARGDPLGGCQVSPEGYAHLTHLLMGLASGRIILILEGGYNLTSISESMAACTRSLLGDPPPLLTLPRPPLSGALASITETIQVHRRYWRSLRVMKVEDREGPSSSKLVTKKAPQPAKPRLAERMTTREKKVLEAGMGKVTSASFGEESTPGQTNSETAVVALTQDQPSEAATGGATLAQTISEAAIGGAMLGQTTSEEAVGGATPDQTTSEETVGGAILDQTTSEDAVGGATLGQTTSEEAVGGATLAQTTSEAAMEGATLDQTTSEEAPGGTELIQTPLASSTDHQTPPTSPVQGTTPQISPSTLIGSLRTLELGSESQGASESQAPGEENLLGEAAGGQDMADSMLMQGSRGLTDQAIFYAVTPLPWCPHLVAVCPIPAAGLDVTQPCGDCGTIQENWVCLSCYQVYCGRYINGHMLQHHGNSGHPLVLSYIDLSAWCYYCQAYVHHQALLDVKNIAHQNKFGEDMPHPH
Procedure: (§1) Flag-HDACs expression vectors capable of expressing different types of HDAC (1, 3, 4 or 6) and a GFP-HDART expression vector were, respectively, co-transfected with 293 cells in the same manner as in Example 2, and cell extracts were prepared 24 hours after the transfection. The respective cell extracts were incubated with an anti-Flag antibody, followed by immunoprecipitation. The resulting immunoprecipitate was isolated with SDS-PAGE and an isolated pattern was transferred to a membrane, followed by immunoblotting with use of an anti-Flag antibody or […]. For reference, in order to confirm the expression of GFP-HDART protein in the respective cells, individual samples prior to the immunoprecipitation were similarly developed with SDS-PAGE to conduct immunoblotting with use of an anti-GFP antibody. […] The kinds of HDAC's from the left side of the figure are as follows: lane 1, HDAC1; lane 3, HDAC3; lane 4, HDAC4; and lane 5, HDAC6. It will be noted that lane 2 is for the sample in which GFP-HDART alone was expressed.

HDAC3 = HDAC3 (Homo sapiens, UniProt O15379); experiment: as above; type: binding; design: expressed in transfected cells; host or cells: 293 cells; settings: co-transfected 293 cells; anti-FLAG immunoprecipitation
Sequence of HDAC3 (O15379 whole entry, species assumed): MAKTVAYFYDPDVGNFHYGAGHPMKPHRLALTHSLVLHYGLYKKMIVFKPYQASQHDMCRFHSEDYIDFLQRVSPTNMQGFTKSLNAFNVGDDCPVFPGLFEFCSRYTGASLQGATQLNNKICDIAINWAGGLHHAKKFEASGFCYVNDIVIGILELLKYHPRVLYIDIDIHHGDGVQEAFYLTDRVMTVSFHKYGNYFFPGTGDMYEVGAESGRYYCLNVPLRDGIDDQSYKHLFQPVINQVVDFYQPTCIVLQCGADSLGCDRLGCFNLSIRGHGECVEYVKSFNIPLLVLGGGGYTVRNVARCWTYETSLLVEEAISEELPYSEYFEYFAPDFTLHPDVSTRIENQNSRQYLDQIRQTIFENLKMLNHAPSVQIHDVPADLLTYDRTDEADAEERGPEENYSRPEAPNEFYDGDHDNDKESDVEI
Procedure: as §1

B1: HDART: HDAC associated repressor TPR protein, 855 amino acids, SEQ ID NO: 2; transcription repressing factor, used as fusions or expressed from vector (protein, listed as Homo sapiens)
chain: MVVMARLSRPERPDLVFEEEDLPYEEEIMRNQFSVKCWLRYIEFKQGAPKPRLNQLYERALKLLPCSYKLWYRYLKARRAQVKHRCVTDPAYEDVNNCHERAFVFMHKMPRLWLDYCQFLMDQGRVTHTRRTFDRALRALPITQHSRIWPLYLRFLRSHPLPETAVRGYRRFLKLSPESAEEYIEYLKSSDRLDEAAQRLATVVNDERFVSKAGKSNYQLWHELCDLISQNPDKVQSLNVDAIIRGGLTRFTDQLGKLWCSLADYYIRSGHFEKARDVYEEAIRTVMTVRDFTQVFDSYAQFEESMIAAKMETASELGREEEDDVDLELRLARFEQLISRRPLLLNSVLLRQNPHHVHEWHKRVALHQGRPREIINTYTEAVQTVDPFKATGKPHTLWVAFAKFYEDNGQLDDARVILEKATKVNFKQVDDLASVWCQCGELELRHENYDEALRLLRKATALPARRAEYFDGSEPVQNRVYKSLKVWSMLADLEESLGTFQSTKAVYDRILDLRIATPQIVINYAMFLEEHKYFEESFKAYERGISLFKWPNVSDIWSTYLTKFIARYGGRKLERARDLFEQALDGCPPKYAKTLYLLYAQLEEEWGLARHAMAVYERATRAVEPAQQYDMFNIYIKRAAEIYGVTHTRGIYQKAIEVLSDEHAREMCLRFADMECKLGEIDRARAIYSFCSQICDPRTTGAFWQTWKDFEVRHGNEDTIKEMLRIRRSVQATYNTQVNFMASQMLKVSGSATGTVSDLAPGQSGMDDMKLLEQRAEQLAAEAERDQPLRAQSKILFVRSDASREELAELAQQVNPEEIQLGEDEDEDEMDLEPNEVRLEQQSVPAAVFGSLKED
activation of the reporter gene responding to glucocorticoid [1]: inhibited
interaction with HDAC6 (HDAC6): exhibits interaction
interaction with HDAC3 (HDAC3): exhibits interaction
